{"source": "the nanobody polyreactivity screen of Harvey et al. (2022)", "test": "yeast display, Sf9 membrane polyspecificity reagent, FACS + sequencing; frameworks hold sequencing errors", "summary_of_the_method": "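In a synthetic yeast display library (Saccharomyces cerevisiae BJ5465), nanobody expression was induced with galactose for 36–48 hours. FACS gates were set low and high (top ~1%) using anti-HA fluorescence for expression and streptavidin fluorescence for binding of the Sf9 membrane reagent. Each polyreactivity label is drawn from the gate of origin.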", "data": [{"sequence": "QVQLVESGGGLVQAGGSLRLSCAASGSIFSWYAMAWYRQAPGKETELVADITWTVGSTYYADSVKGRFTISRDNAKNPVYLQMNSLIPEDTAVYYWAARRVVYRYYWYSAYDYSGQGTQVTVSS", "values": [{"measurement": "polyreactivity (PSR sort gate)", "value": "high polyreactivity"}]}, {"sequence": "QVQLVESGGGLVQAGGSLRLSCAASGSIFSWYAMGWYRQAPGKEREFVAAITWGTGGTYYADSVKGRFTISRDNAKNTVYLQMNSLKLEDTAVYYCAKTRSYGRSGVSRRYGFYYWGQGTQVTVSS", "values": [{"measurement": "polyreactivity (PSR sort gate)", "value": "high polyreactivity"}]}, {"sequence": "QVQLVESGGGLVQAGGSLRLSCAASGSIFSYNVMGWYRQAPGKERELVAAISYGGGSTYYADSVKGRFTISRDTAKNTVYLQMNSLKPEDTAVYYCAARKWYTYYPYDYWGQGTQVTVSS", "values": [{"measurement": "polyreactivity (PSR sort gate)", "value": "high polyreactivity"}]}, {"sequence": "QVQLVESGGGLVQAGGSLRLSCAASGSIFSYYAMGWYRQAPGKERELVAAIDRSGVSTYYADSVKGRFTISRDNAKNTVYLQMNSLKPEDTAVYYCNTDHRNICFRFKYDYWGQGTQVTVSS", "values": [{"measurement": "polyreactivity (PSR sort gate)", "value": "high polyreactivity"}]}, {"sequence": "QVQLVESGGGLVQAGGSLRLSCAASGSIFSYYAMGWYRQAPGKERELVAAIRRGGSTNYADSVKGRFTNSRDNAKNTVYLQMNSLKPEDTAVYYCAASLGWRFYYWGQGSQVTVSS", "values": [{"measurement": "polyreactivity (PSR sort gate)", "value": "high polyreactivity"}]}, {"sequence": "QVQLVESGGGLVQAGGSLRLSCAASGSIFSYYAMGWYRQAPGKERELVAAISSRGDGRTYYADSVKGRFTISRDNAKNTVYLQMNSLKPEDTAVYYCAAESSHYRLRDRDYWGQGTQVTVSS", "values": [{"measurement": "polyreactivity (PSR sort gate)", "value": "high polyreactivity"}]}, {"sequence": "QVQLVESGGGLVQAGGSLRLSCAASGSIFSYYAMGWYRQAPGKERELVAAISYTGGTTYYADSVKGRFTISRDNAKNTVYLQMNSLKPEDTAVYYCAAQWWWNRPVRYEYWGQGTQVTVSS", "values": [{"measurement": "polyreactivity (PSR sort gate)", "value": "low polyreactivity"}]}, {"sequence": "QVQLVESGGGLVQAGGSLRLSCAASGSIFSYYAMGWYRQAPGKERELVAAITSGGSTYYADSVKGRFTISRDNAKNTVYLQMNSLKPEDTAVYYCAREKWPSQYDYWGQGTQVTVSS", "values": [{"measurement": "polyreactivity (PSR sort gate)", "value": "low polyreactivity"}]}, {"sequence": "QVQLVESGGGLVQAGGSLRLSCAASGSIFSYYAMGWYRQAPGKERELVAAITSGGSTYYSDSVKGRFTISRDNAKNTVYLQMNSLKPEDTAVYYCAREKWPSQYDYWGQGTQVTVSS", "values": [{"measurement": "polyreactivity (PSR sort gate)", "value": "low polyreactivity"}]}, {"sequence": "QVQLVESGGGLVQAGGSLRLSCAASGSIFSYYAMGWYRQAPGKERELVAAITTSGGSTYYADSVKGRFTISRDNAKNTVYLQMNSLKPEDTAVYYCAVDQYDRTTAFWYWYPYYYWGQGTQVTVSS", "values": [{"measurement": "polyreactivity (PSR sort gate)", "value": "low polyreactivity"}]}, {"sequence": "QVQLVESGGGLVQAGGSLRLSCAASGSIFSYYAMGWYRQAPGKERELVAAITWSGGTTYYADSVKGRFTISRDNAKNTVYLQMNSLKPEDTAVYYCAADTYDYWYGVWLEYDYWGQGTQVTVSS", "values": [{"measurement": "polyreactivity (PSR sort gate)", "value": "high polyreactivity"}]}, {"sequence": "QVQLVESGGGLVQAGGSLRLSCAASGSIFSYYAMGWYRQAPGKERELVADITANDGSTYYADSVKGRFTISRDNAKNTVYLQMNSLKPEDTAVYYCAAEYYYPIWGPYDYWGQGTQVTVSS", "values": [{"measurement": "polyreactivity (PSR sort gate)", "value": "high polyreactivity"}]}, {"sequence": "QVQLVESGGGLVQAGGSLRLSCAASGSIFSYYAMGWYRQAPGKERELVATISVSGGNTYYADSVKGRFTISRDYAKNTVYLQMNSLKPEDTAVYYCAKYNWYRAWRYGYWGQGTQVTVSS", "values": [{"measurement": "polyreactivity (PSR sort gate)", "value": "high polyreactivity"}]}, {"sequence": "QVQLVESGGGLVQAGGSLRLSCAASGSIFSYYARGWYRHAPGKERELVADITWDGGSTYYADSVKGRFTISRDNAKNTVYLQMNSLKPEDTAVYYCAAGRIVWSDYYVYTLYDYWGQGTQVTVSS", "values": [{"measurement": "polyreactivity (PSR sort gate)", "value": "high polyreactivity"}]}, {"sequence": "QVQLVESGGGLVQAGGSLRLSCAASGSIFSYYVMGWYRQAPGKERELVAAITSSGGSTYYADSVKGRFTISRDNAKNTVYLQMNSLKTEDTAVYYCAAYQRSQDRSYPGYEYWGQGTQVTVSS", "values": [{"measurement": "polyreactivity (PSR sort gate)", "value": "high polyreactivity"}]}, {"sequence": "QVQLVESGGGLVQAGGSLRLSCAASGSIFSYYVMGWYRQAPGKERELVAVITDRGGRTYYADSVKGRFTISRDNAKNTVYLQMNSLKPEDTAVYYCAADDTPYNSKRFDYWGQGTQVTVSS", "values": [{"measurement": "polyreactivity (PSR sort gate)", "value": "high polyreactivity"}]}, {"sequence": "QVQLVESGGGLVQAGGSLRLSCAASGSIFTAYAMGWYRQAPGKERELVAAIRWNDGRTYYADSVKGRFTISRDNAKNTVYLQINSLKPEDTAVYYCAARYTDVTPGFAYYYWGQGTQVTVSS", "values": [{"measurement": "polyreactivity (PSR sort gate)", "value": "high polyreactivity"}]}]}
